To fix the notation:
B1: human C1r, full-length enzyme (enzyme)
chain: SIPIPQKLFGEVTSPLFPKPYPNNFETTTVITVPTGYRVKLVFQQFDLEPSEGCFYDYVKISADKKSLGRFCGQLGSPLGNPPGKKEFMSQGNKMLLTFHTDFSNEENGTIMFYKGFLAYYQAVDLDECASRSKSGEEDPQPQCQHLCHNYVGGYFCSCRPGYELQEDTHSCQAECSSELYTEASGYISSLEYPRSYPPDLRCNYSIRVERGLTLHLKFLEPFDIDDHQQVHCPYDQLQIYANGKNIGEFCGKQRPPDLDTSSNAVDLLFFTDESGDSRGWKLRYTTEIIKCPQPKTLDEFTIIQNLQPQYQFRDYFIATCKQGYQLIEGNQVLHSFTAVCQDDGTWHRAMPRCKIKDCGQPRNLPNGDFRYTTTMGVNTYKARIQYYCHEPYYKMQTRAGSRESEQGVYTCTAQGIWKNEQKGEKIPRCLPVCGKPVNPVEQRQRIIGGQKAKMGNFPWQVFTNIHGRGGGALLGDRWILTAAHTLYPKEHEAQSNASLDVFLGHTNVEELMKLGNHPIRRVSVHPDYRQDESYNFEGDIALLELENSVTLGPNLLPICLPDNDTFYDLGLMGYVSGFGVMEEKIAHDLRFVRLPVANPQACENWLRGKNRMDVFSQNMFCAGHPSLKQDACQGDSGGVFAVRDPNTDRWVATGIVSWGIGCSRGYGFYTKVLNYVDWIKKEMEEED
B2: BAD16-C (residues 204-352, B. afzelii strain PGau) (domain or fragment)
chain: SNRYESYLEGVKYNVSSAIKTIVKIYDNYTLLSTKQTQMYSTRLDNLAKAKAREEAKKFTKEELEKDLKTLLNYIQVSARTATNFVYAREIYSKRKLDAIETEIKNLVLKIKGQSDLYEAYKAIVRSILLMKDSLKIIEIVIDKNGVWY
B3: BBK32-C (residues 206-354, B. burgdorferi strain B31) (domain or fragment)
chain: SNRYQSYLEGVKYNVDSAIQTITKIYNTYTLFSTKLTQMYSTRLDNFAKAKAKEEAAKFTKEDLEKNFKTLLNYIQVSVKTAANFVYINDTHAKRKLENIEAEIKTLIAKIKEQSNLYEAYKAIVTSILLMRDSLKEVQGIIDKNGVWY

Test [1] deals with B2. Put plainly: SPR. For orientation: In SPR one partner is held on a chip, and binding of the other changes the refractive index at the surface.
Another test deals with human C1 complex (human, UniProt P02745 23-245; P02746 28-253; P02747 29-245). Kind of test: SPR.

For orientation: Kd means the constant that tells how readily two partners part at equilibrium. Read a low Kd as a tighter complex. On to B1, for which the Kd in test [1] was found to be 2.2 nM.
B2 came in with a Kd with human C1 complex of 5.4 nM. This lies in the single-digit nanomolar range.
In the case of B3, in the test with human C1 complex, the Kd is 6 nM.

For the origin of these results see PMC6445466 (2019).
